This assay has as its system MMP 1, 2, 3, 9, 13, 14. Kind of assay: Inhibition assays with MMPs. It counts as biochemical. The method, then: Inhibition assays with MMPs. The fluorescent substrate Dabcyl-GPLGMRGC (Fluorescein)-NH2 (SEQ ID NO 18) (10 μM) in assay buffer containing 50 mM Tris, pH 7.5, 150 mM NaCl, 2 mM CaCl2, 5 μM ZnSO4, and 0.01% Brij-35 was used to monitor enzyme activities. MMPs 1, 2, 3, 9, 13, and 14 (0.1-20 nM) were incubated with substrate in the absence or presence of prodomain (3-30 μM). Fluorescence intensities were measured every 3-5 minutes at an emission wavelength of 530 nm (excitation 485 nm).
Calculation of inhibition constants. The amount of activity was calculated by subtracting the ADAM 10 prodomain control from the ADAM 10 prodomain with enzyme. All inhibition assays were performed at room temperature and the data fit to the following equation using Sigma Plot software:
[formula] where If is fractional inhibition, I is the inhibitor concentration and Ki is the inhibition constant.

This note sets out measurements from patent publication US8034783B2, “Prodomain modulators of ADAM 10” (Biozyme, Inc., priority 2006, dated 2011).

B1: C173S ProADAM 10 23-213 (C-terminal His tag): mouse ADAM 10 prodomain 23-213 with cysteine 173 mutated to serine, C-terminal His tag (protein, UniProt O35598 23-213, looked up, variant C173S)
chain: NPLNKYIRHYEGLSYNVDSLHQKHQRAKRAVSHEDQFLLLDFHAHGRQFNLRMKRDTSLFSDEFKVETSNKVLDYDTSHIYTGHIYGEEGSFSHGSVIDGRFEGFIKTRGGTFYIEPAERYIKDRILPFHSVIYHEDDINYPHKYGPQGGSADHSVFERMRKYQMTGVEEGARAHPEKHAASSGPELLRKK
modifications: pro-form C-terminal His tag
notes: mouse ADAM 10 prodomain 23-213 with cysteine 173 mutated to serine, C-terminal His tag
For B1, the “inhibition of matrix metalloproteinases 1, 2, 3, 9, 13 and 14” value (3 μM prodomain) is on record as “not inhibited”. Moreover, where the note is “read-out: inhibition constant, MMP 1, 2, 3, 9, 13, 14”, the Ki is more than 2000 nM.
